Laboratory results taken from article PMC7987981, “Molecular characterisation of rare loss-of-function NPAS3 and NPAS4 variants identified in individuals with neurodevelopmental disorders” (Scientific Reports, 2021).

Target: T1, NPAS4 170X-Myc/FLAG (c.508C>T nonsense variant) (human, UniProt Q8IUM7-1 1-169)
T1 sequence (looked up): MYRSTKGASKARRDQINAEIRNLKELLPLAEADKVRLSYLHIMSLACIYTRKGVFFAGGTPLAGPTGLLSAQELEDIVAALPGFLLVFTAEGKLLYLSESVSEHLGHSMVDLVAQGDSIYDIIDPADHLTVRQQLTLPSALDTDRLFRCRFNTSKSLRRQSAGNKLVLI
Assay: cell-based or functional assay

6xCME firefly luciferase reporter gene activity in HEK293T (dual luciferase; ARNT2-FLAG as partner; printed for ARNT and ARNT2 alike): > 200 fold decrease relative to wildtype
B1: ARNT2-Strep (natural protein)
chain: not shown
